The values below come from patent US20050152926A1.

Assay [1] addresses HLA A2 on RMA-S/A2 cells (human). The experiment in a line: RMA-S/A2 HLA A2 stabilisation, BB7.2 FACS; 100 µM peptide; FIG 2(xix).
Assay [2] shares this target. The experiment in a line: RMA-S/A2 HLA A2 stabilisation, BB7.2 FACS; 100 µM peptide; ΔMean minus highest HepB ΔMean.
Assay [3] shares this target. In words: RMA-S/A2 HLA A2 stabilisation, BB7.2 FACS; 1 µM peptide; FIG 1(xii).
For assay [4] the target is unchanged. In words: RMA-S/A2 HLA A2 stabilisation, BB7.2 FACS; 1 µM peptide; ΔMean minus highest HepB ΔMean.
Assay [5] shares this target. The experiment in a line: RMA-S/A2 HLA A2 stabilisation, BB7.2 FACS; 100 µM peptide; FIG 3(xxi).
Assay [6] shares this target. The experiment in a line: RMA-S/A2 HLA A2 stabilisation, BB7.2 FACS; 100 µM peptide; FIG 3(xxiii).
Assay [7] shares this target. The experiment in a line: RMA-S/A2 HLA A2 stabilisation, BB7.2 FACS; 100 µM peptide; FIG 1(xxv).
Assay [8] shares this target. In words: RMA-S/A2 HLA A2 stabilisation, BB7.2 FACS; 100 µM peptide; FIG 1(xxii).
Assay [9] has the same target. The experiment in a line: RMA-S/A2 HLA A2 stabilisation, BB7.2 FACS; 100 µM peptide; FIG 2(x).
For assay [10] the target is unchanged. The experiment in a line: RMA-S/A2 HLA A2 stabilisation, BB7.2 FACS; 100 µM peptide; FIG 3(xxii).
The target is the same in assay [11]. The experiment in a line: RMA-S/A2 HLA A2 stabilisation, BB7.2 FACS; 100 µM peptide; FIG 1(xxi).
For assay [12] the target is unchanged. The experiment in a line: RMA-S/A2 HLA A2 stabilisation, BB7.2 FACS; 100 µM peptide; FIG 3(xxv).
Assay [13] has the same target. In words: RMA-S/A2 HLA A2 stabilisation, BB7.2 FACS; 100 µM peptide; FIG 3(xx).
The target is the same in assay [14]. In words: RMA-S/A2 HLA A2 stabilisation, BB7.2 FACS; 100 µM peptide; FIG 3(xxiv).
Assay [15] has the same target. In words: RMA-S/A2 HLA A2 stabilisation, BB7.2 FACS; 100 µM peptide; FIG 1(xxvi).
Assay [16] shares this target. In words: RMA-S/A2 HLA A2 stabilisation, BB7.2 FACS; 10 µM peptide; FIG 2(xi).
The target is the same in assay [17]. In words: RMA-S/A2 HLA A2 stabilisation, BB7.2 FACS; 10 µM peptide; ΔMean minus highest HepB ΔMean.
The target is the same in assay [18]. In words: RMA-S/A2 HLA A2 stabilisation, BB7.2 FACS; 100 µM peptide; FIG 3(xix).

Turning to KLLKDHFDL (modifications not checked) [CH34], in assay [1], the Mean 2 stood at 390 and the Δ Mean stood at 235. This molecule also came in with a High - B in assay [2] of 81.

Turning to VLNLFFSAL (modifications not checked) [CH3], in assay [3], the Mean 2 came to 419 and the Δ Mean was determined as 224. In addition, the High - B in assay [4] worked out at 0.

Turning to SLLEEHPVV (modifications not checked) [CH52], the High - B in assay [2] is 89. In assay [5], this molecule yielded a Mean 2 of 396 and a Δ Mean of 249.

Molecule ALWKENQAL (modifications not checked) [CH54] returned a High - B in [2] of 91. Also, in assay [6], the Δ Mean turned out to be 251.

As for LLLTLGYAV (modifications not checked) [CH19], the High - B in assay [2] turned out to be 0. In addition, in [7], the Mean 2 was 436 and the Δ Mean is 240.

Regarding VQLAYVFDV (modifications not checked) [CH16], the High - B in [2] was found to be 0. For the same molecule, in assay [8], the Mean 2 amounted to 433 and the Δ Mean was 232.

The molecule TLWGSFVDV (modifications not checked) [CH21] came in with a High - B in [2] of 121. Also, in assay [9], the Mean 2 turned out to be 440 and the Δ Mean came out at 275.

Molecule NLWSHYTDL (modifications not checked) [CH53] displayed a High - B in [2] of 48. In [10], the Mean 2 was found to be 350 and the Δ Mean worked out at 209.

In the case of YLTSYSPYV (modifications not checked) [CH15], in [11], the Mean 2 came out at 557 and the Δ Mean was 322. The molecule also returned a High - B in [2] of 76.

In assay [12], NLAGGILSV (modifications not checked) [CH56] returned a Mean 2 of 383 and a Δ Mean of 240. For the same molecule, the High - B in assay [2] turned out to be 80.

NLSRQAFFA (modifications not checked) [CH51]: the High - B in assay [2] worked out at 19. In assay [13], the Mean 2 came to 311 and the Δ Mean was determined as 179.

As to ALWGHNVLL (modifications not checked) [CH55], the High - B in assay [2] was found to be 98. In addition, in assay [14], the Mean 2 came to 411 and the Δ Mean is 258.

The molecule ALMLLNNYV (modifications not checked) [CH20] had a High - B in [2] of 138. In addition, in assay [15], the Mean 2 came to 578 and the Δ Mean amounted to 384.

Consider WLFDLRFSV (modifications not checked) [CH22], for which, in assay [16], the Mean 2 was determined as 390 and the Δ Mean stood at 227. This molecule also displayed a High - B in assay [17] of 73.

Molecule SLCAQSSYV (modifications not checked) [CH50] returned a High - B in assay [2] of 91. In assay [18], this molecule registered a Mean 2 of 381 and a Δ Mean of 251.
